The target of the assay is T1, recombinant His-tagged wild-type SARS-CoV-2 Spike trimer (SARS-CoV-2, Wuhan-Hu-1 (wild-type), UniProt P0DTC2).
T1 construct: also called wild-type Spike trimer; wild-type Spike
In words: flow cytometry on cells; Cas1-CAR-NK92MI cells displaying the scFv-CAR incubated with recombinant His-tagged Spike trimer in PBS with 0.5 mM CaCl2 and 0.9 mM MgCl2, 1 hour at 4°C under gentle agitation; washed, stained with PE anti-His and Alexa Fluor 647 anti-human IgG (H+L); parental NK92MI as negative and 293T-hACE2 as positive control. Particulars: one partner purified.

One molecule from PMC10371346, “Modeling of ACE2 and antibodies bound to SARS-CoV-2 provides insights into infectivity and immune evasion” (JCI Insight, 2023) can be followed below.

B1: REGN10933 (casirivimab) single chain variable fragment displayed as a chimeric antigen receptor on NK92MI cells (scFv, V domains shown)
VH: QVQLVESGGGLVKPGGSLRLSCAASGFTFSDYYMSWIRQAPGKGLEWVSYITYSGSTIYYADSVKGRFTISRDNAKSSLYLQMNSLRAEDTAVYYCARDRGTTMVPFDYWGQGTLVTVSS
VL: DIQMTQSPSSLSASVGDRVTITCQASQDITNYLNWYQQKPGKAPKLLIYAASNLETGVPSRFSGSGSGTDFTFTISGLQPEDIATYYCQQYDNLPLTFGGGTKVEIK
notes: scFv domain of casirivimab (REGN10933); the variable domains are those of REGN10933 in PDB 6XDG; rest of the chimeric antigen receptor (hinge, transmembrane and signalling parts); also called Cas1-CAR; Cas1
For the molecule B1, the binding result was “binds”.
